Test results taken from PMC5830446, “Spatial specificity of auxin responses coordinates wood formation”.

Biological target: T1, ARF5 DNA-binding domain (ARF5-DBD) (UniProt P93024 120-274)
T1 sequence: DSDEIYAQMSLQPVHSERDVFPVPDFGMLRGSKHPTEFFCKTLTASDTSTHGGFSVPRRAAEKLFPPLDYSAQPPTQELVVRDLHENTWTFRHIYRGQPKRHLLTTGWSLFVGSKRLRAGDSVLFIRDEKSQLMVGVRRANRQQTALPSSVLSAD
Test: EMSA; EMSA: 12.5 pmol ARF5-DBD (doubled in competition), 200 fmol Cy5 probe, 10 mM Tris-HCl pH 7.4, 75 mM NaCl, 50 ng/ul poly(dI-dC), 1 mM DTT, 20 min room temperature; 6% native gel, 0.5x TBE
Settings: protein: recombinant; tags: 6xHis-MBP removed by TEV protease; label: 5' Cy5 (both strands); blunt

B1: WOX4b (dsDNA)
DNA 1: AATCTGTCATTACCGACATAGT
DNA 2: ACTATGTCGGTAATGACAGATT
binding result: no binding

B2: WOX4a (dsDNA)
DNA 1: GCTCCATGCAGACATGAACATA
DNA 2: TATGTTCATGTCTGCATGGAGC
binding result: binds
